# Assay results taken from PMC2118495.
# Read-outs that look alike come from different tables or passages of the source.
# How the values were obtained:
# Test in all cases: native gel or EMSA
# [1] = target: human TCRγδ (clonotypic heterodimer of the γδ TCR) (human (endogenous in PBMCs and γδ T cell clones))
# [2] = target: mouse TCRγδ (transgenic TCRVγ1.1 and TCRVδ6 chains) (mouse)
# [3] = target: mouse TCRγδ (transgenic TCRVγ1.1 and TCRVδ6 chains) (mouse); remark: listed apart in the source
stoichiometry N [1],Molecule,other results
1,human CD3γ (from UniProt P09693 23-182) (natural protein),–
2,human ζ chain of the TCR (ζζ dimer) (from UniProt P20963 22-164) (natural protein),–
–,mouse CD3ε (from UniProt P22646 22-189) (natural protein),stoichiometry N [2]: 2
2,human CD3ε (from UniProt P07766 23-207) (natural protein),–
1,human CD3δ (from UniProt P04234 22-171) (natural protein),–
–,mouse CD3γ (natural protein) QTNKAKNLVQVDGSRGDGSVLLTCGLTDKTIKWLKDGSIISPLNATKNTWNLGNNAKDPRGTYQCQGAKETSNPLQVYYRMCENCIELNIGTISGFIFAEVISIFFLALGVYLIAGQDGVRQSRASDKQTLLQNEQLYQPLKDREYDQYSHLQGNQLRKK,stoichiometry N [3]: 2
